# Measured values reported in patent US20030199671A1, “Binding molecules for Fc-region polypeptides” (priority 2001, published 2003).
# Like-named read-outs stand apart in the source and are kept apart here. code X = not defined here; code Z = not defined here
# Assays:
# IgG3 = IgG3 (Homo sapiens, UniProt P01860); format: binding; set-up: all human subtypes derived from myeloma patients; purchased Calbiochem 400124; host or cells: myeloma patients; details: for Batch Binding (% Capture of Total Load) hIgG3: Table 18, average ligand density 1.9 μmole/ml
# Method: (§1) In addition, the following targets, all unfractionated IgGs, were also evaluated with selected immobilized peptides for species specificity characterization in a similar format: human IgG, goat IgG, bovine IgG, and mouse IgG (Sigma, product nos. I4506, I5256, I5506, and I15381, respectively). In addition, 10 μl aliquots of hydrolyzed NHS-activated Sepharose 4 Fast Flow (Amersham Pharmacia Biotech, product no. 17-0906-01) and immobilized recombinant Protein A (RepliGen Corp., product no. IPA-400) were also assayed as negative and positive controls. IgG targets were diluted into 10 mM phosphate buffer containing 150 mM NaCl and 0.01% Tween 20, pH 7.2 (PBST) or 50 mM Tris buffer containing, 150 mM NaCl and 0.01% Tween-20, pH 7.5 (TBST). Batch (static) binding and elution studies were conducted in a 96-well assay filterplate (Millipore MultiScreen-HV, with 0.45 μm Durapore membrane, product no. MAHVN4510). The target was allowed to incubate with the resin for 1-1.5 hours with shaking at room temperature. Unbound target was collected by centrifugation of samples from the assay plate directly into a low-UV absorbing 96-well collection plate (Costar, product no. 3635 or Greiner, product no. 655801). The unbound target was then quantitated by reading the absorbance at 280 nm (normalized to 1 cm pathlength, 1.4 mg/ml A280 extinction coefficient) of the collection plate on a microplate spectrophotometer (Molecular Devices Corp., SPECTRAmax PLUS) against a buffer blank.
# (§2) The percentage bound target was determined by subtracting the mass determined as unbound from the corresponding condition's control values (control non-filtered added directly to the collection plate and/or the negative control). The assay plate was washed (3×) with 200 μl of binding buffer by vacuum filtration followed by addition of 100 μl of various elution conditions (e.g.: 0.1 M sodium bicarbonate buffer, pH 8.5 and/or 0.1 M sodium citrate buffer, pH 4.0). After a 30-60 minute incubation with shaking at room temperature, the eluted target was collected by centrifugation of the assay plate into another collection plate and quantitated in a similar manner. Percent elution of total load was then determined to characterize elution recovery efficiency under various conditions. The assay plate was then washed (3×) with 200 μl of binding buffer by vacuum filtration followed by addition of a resin cleaning condition (e.g., 0.1M CAPS buffer (3-[Cyclohexylamino]-1-propane-sulfonic acid), pH 11.5, to regenerate the resin for re-use. Percentage mass balance determination was calculated to be 90-100% on average.
# human IgG2 = target: T1, human IgG2 (Homo sapiens, UniProt P01859); format: binding; details: for Batch Binding (% Capture of Total Load) hIgG2: Table 18, average ligand density 1.9 μmole/ml
# T1 construct: all human subtypes derived from myeloma patients; purchased Calbiochem 400122; host or cells: myeloma patients
# Method: as §1, §2
# goat IgG = format: binding
# Method: as §1, §2
# mouse IgG = format: binding
# Method: as §1, §2
# human IgG1 = target: T2, human IgG1 (Homo sapiens, UniProt P01857); format: binding; details: for Batch Binding (% Capture of Total Load) hIgG1: Table 18, average ligand density 1.9 μmole/ml
# T2 construct: all human subtypes derived from myeloma patients; purchased Calbiochem 400120; host or cells: myeloma patients
# Method: as §1, §2
# bovine IgG = format: binding
# Method: as §1, §2
# human IgG [1] = format: binding; details: for Batch Binding (% Capture of Total Load) hIgG: Table 18, average ligand density 1.9 μmole/ml
# Method: as §1, §2
# IgG4 = IgG4 (Homo sapiens, UniProt P01861); format: binding; set-up: all human subtypes derived from myeloma patients; purchased Calbiochem 400126; host or cells: myeloma patients; details: for Batch Binding (% Capture of Total Load) hIgG4: Table 18, average ligand density 1.9 μmole/ml
# Method: as §1, §2
# human IgG [2] = experiment: Dynamic (mini-column) binding capacity; details: Table 18; total dynamic capacity; average ligand density 1.9 μmole/ml
# Method: (§3) These media were used to determine the effect of ligand density on human IgG binding capacity in both static (filterplate) and dynamic (mini-column) modes with commercial immobilized recombinant Protein A (Repligen, IPA400) at a single density as control.
# The IgG solution was loaded onto the column at a flow rate of 0.2 ml/minute (170 cm/hr). […] At the end of the loading period, the column was washed with PBS until the absorbance at 280 nm of the column eluant returned to baseline. […] Neutralizing the pH of the eluted fractions was unnecessary since the total IgG eluted was determined by total protein absorbance at 280 nm.
# To establish total media capacities, IgG was loaded onto the columns until the absorbances of the column load and flow through streams were identical (loading to full capacity). After washing the column to baseline, bound IgG was eluted and the total amount captured from this elution fraction determined. The total capacity of the media (mg IgG/ml media) as total IgG captured divided by the column bed volume was calculated.
# Additionally, column capacities at 10% breakthrough were calculated from the online A280 measurements of column flowthrough streams. The A280 curves obtained for the column of interest and for an equivalent “blank” column containing hydrolyzed Sepharose FF 4 media were aligned. The difference in areas between these curves (for a retained and non-retained target) from the time of injection to the time at which the A280 value for the column of interest had risen to 10% of the maximum A280 absorbance (100%) obtained for the load solution at 100% IgG capture saturation (10% breakthrough) was graphically integrated. A standard curve was used to relate the integrated area to mg IgG bound and capacity calculated as total IgG bound divided by column bed volume.
# human IgG [3] = experiment: Static (filterplate) binding capacity; details: 25 mg human IgG applied per ml resin
# Method: as §3, with “control. Actual ligand densities obtained ranged from 0.17 to 3.2 μmole/ml media as confirmed by quantitative amino acid analysis.” for “control.”
# After incubation of the samples, with shaking, at room temperature for one hour, the supernatant liquid from each well, containing unbound IgG, was collected by centrifugation into the cognate well of a collection plate. The assay plate was washed three times with PBST (200 μl/wash) and bound IgG was eluted from the media samples by incubation for 30-60 minutes at room temperature in 100 μl Elution Buffer (100 mM CAPS, pH 11.5). Eluates were collected by centrifugation for analysis. Protein concentrations were determined from A280 measurements and plotted as a function of mg human IgG bound per ml resin vs. mg human IgG applied per ml resin.
# The amount of IgG captured (estimated from IgG recovered in the elution step) by the various media is dependent upon both the IgG concentration and the ligand density. […] Under these static conditions, where both ligand and target concentrations are close to KD values, equilibrium binding is established and total capacities cannot be accurately determined. However, over the IgG range of 0 to 25 mg IgG applied per ml resin (0 to 2.5 mg/ml target added to 10 μl of resin), capture of IgG is linear. Beyond this point, up to a level of 200 mg IgG applied per ml resin, saturation becomes more pronounced.
# [4] = Table 9, immobilized peptide, 5.0 mg/ml resin load
# [5] = Table 13, average ligand density 1.8 μM/ml
# [6] = Table 14, average ligand density 1.8 μM/ml
# IgG4, sequence (P01861 1-327 isoform P01861-1): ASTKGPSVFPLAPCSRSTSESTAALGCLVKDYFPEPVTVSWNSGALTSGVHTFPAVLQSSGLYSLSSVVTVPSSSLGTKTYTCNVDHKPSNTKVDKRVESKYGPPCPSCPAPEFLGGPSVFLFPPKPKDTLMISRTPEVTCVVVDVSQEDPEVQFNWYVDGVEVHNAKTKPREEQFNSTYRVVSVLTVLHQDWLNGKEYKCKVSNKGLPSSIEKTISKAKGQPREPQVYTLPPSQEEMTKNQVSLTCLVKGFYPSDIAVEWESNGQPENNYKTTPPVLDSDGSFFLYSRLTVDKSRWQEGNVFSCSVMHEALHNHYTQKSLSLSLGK
# T1 sequence (P01859 1-326 isoform P01859-1): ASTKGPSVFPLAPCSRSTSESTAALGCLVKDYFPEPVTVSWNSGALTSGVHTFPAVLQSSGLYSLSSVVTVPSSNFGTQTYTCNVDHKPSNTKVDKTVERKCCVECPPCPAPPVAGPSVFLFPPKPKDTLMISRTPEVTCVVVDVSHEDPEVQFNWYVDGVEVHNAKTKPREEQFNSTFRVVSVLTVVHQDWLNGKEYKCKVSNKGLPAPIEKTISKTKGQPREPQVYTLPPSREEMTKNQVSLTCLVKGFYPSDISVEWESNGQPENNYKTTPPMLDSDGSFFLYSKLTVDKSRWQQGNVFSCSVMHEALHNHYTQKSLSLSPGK
# IgG3, sequence (P01860 1-377 isoform P01860-1): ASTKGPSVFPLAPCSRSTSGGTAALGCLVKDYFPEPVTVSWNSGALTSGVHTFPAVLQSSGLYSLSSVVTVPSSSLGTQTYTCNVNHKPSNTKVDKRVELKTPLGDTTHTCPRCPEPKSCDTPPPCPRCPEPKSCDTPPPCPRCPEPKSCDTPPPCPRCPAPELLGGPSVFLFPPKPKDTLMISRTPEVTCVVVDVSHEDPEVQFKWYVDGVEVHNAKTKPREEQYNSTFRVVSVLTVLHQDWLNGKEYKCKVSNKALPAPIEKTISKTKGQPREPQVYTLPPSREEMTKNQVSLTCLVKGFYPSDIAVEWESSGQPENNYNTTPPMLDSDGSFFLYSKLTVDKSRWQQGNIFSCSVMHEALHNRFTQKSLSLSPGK
# T2 sequence (P01857 1-330 isoform P01857-1): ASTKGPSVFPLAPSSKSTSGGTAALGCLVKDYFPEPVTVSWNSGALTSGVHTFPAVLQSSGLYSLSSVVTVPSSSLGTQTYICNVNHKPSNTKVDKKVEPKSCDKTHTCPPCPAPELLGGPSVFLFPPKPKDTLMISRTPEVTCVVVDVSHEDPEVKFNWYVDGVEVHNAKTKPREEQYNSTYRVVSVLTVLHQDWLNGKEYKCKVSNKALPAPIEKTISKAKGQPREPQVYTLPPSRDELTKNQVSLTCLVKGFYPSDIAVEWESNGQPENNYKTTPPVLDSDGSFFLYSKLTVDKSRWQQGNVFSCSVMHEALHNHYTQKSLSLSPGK
substance,measurement,setting,value
Ac-AGPVDCKHHFWWCYWNGTPGPEGGGK-NH2 (not fully specified (bridges); printed as Ac-AGPVDCKHHFWWCYWNGTPGPEGGGK-NH2; cysteine pairing not given here) [DX251],"% IgG Capture - Batch Binding, Human IgG3",IgG3; [4],5%
same,"% IgG Capture - Batch Binding, Human IgG2",human IgG2; [4],14%
same,"% IgG Capture - Batch Binding, Goat IgG","goat IgG; Table 11, unfractionated IgG",0%
same,"% IgG Capture - Batch Binding, Mouse IgG","mouse IgG; Table 11, unfractionated IgG",4%
same,"% IgG Capture - Batch Binding, Human IgG1",human IgG1; [4],6%
same,"% IgG Capture - Batch Binding, Bovine IgG","bovine IgG; Table 11, unfractionated IgG",0%
same,"% IgG Capture - Batch Binding, Human IgG","human IgG [1]; Table 11, unfractionated IgG",4%
same,"% IgG Capture - Batch Binding, Human IgG4",IgG4; [4],1%
Ac-GDDHMCVYTTWGELIWCDNH-X-NH2 (Ac-GDDHMCVYTTWGELIWCDNH-{code X-NH2}; not fully specified (bridges); printed as Ac-GDDHMCVYTTWGELIWCDNH-X-NH2; cysteine pairing not given here; reading uncertain) [DX907],Batch Binding (% Capture of Total Load) hIgG3,IgG3,7%
same,Dynamic Cap.,human IgG [2],5 mg/mL
same,Batch Binding (% Capture of Total Load) hIgG2,human IgG2,54%
same,Batch Binding (% Capture of Total Load) hIgG1,human IgG1,65%
same,Batch Binding (% Capture of Total Load) hIgG,human IgG [1],49%
same,"Decrease in apparent relative static capacity compared to DX249, DX877 and DX878",human IgG [3],~2 fold
same,Batch Binding (% Capture of Total Load) hIgG4,IgG4,35%
Ac-GDDHMCVYTTWGELIWCDNH-X-Z-X-NH2 (Ac-GDDHMCVYTTWGELIWCDNH-{code X-code Z-code X-NH2}; not fully specified (bridges); printed as Ac-GDDHMCVYTTWGELIWCDNH-X-Z-X-NH2; cysteine pairing not given here; reading uncertain) [DX911],Batch Binding (% Capture of Total Load) hIgG3,IgG3,6%
same,Batch Binding (% Capture of Total Load) hIgG2,human IgG2,46%
same,Batch Binding (% Capture of Total Load) hIgG1,human IgG1,58%
same,Batch Binding (% Capture of Total Load) hIgG,human IgG [1],43%
same,"Decrease in apparent relative static capacity compared to DX249, DX877 and DX878",human IgG [3],~2 fold
same,Batch Binding (% Capture of Total Load) hIgG4,IgG4,25%
Ac-GDDHMCVYTTWGELIWCDNHEPGPEG-X-NH2 (Ac-GDDHMCVYTTWGELIWCDNHEPGPEG-{code X-NH2}; not fully specified (bridges); printed as Ac-GDDHMCVYTTWGELIWCDNHEPGPEG-X-NH2; cysteine pairing not given here; reading uncertain) [DX877],Dynamic Cap.,human IgG [2],8 mg/mL
same,Batch Binding (% Capture of Total Load) hIgG,human IgG [1],61%
same,Static Cap.,"human IgG [3]; Table 18, average ligand density 1.9 μmole/ml",20 mg/mL
Ac-GDNPMCWKKSWWEDAYCINHGTPGPEGGGK-NH2 (not fully specified (bridges); printed as Ac-GDNPMCWKKSWWEDAYCINHGTPGPEGGGK-NH2; cysteine pairing not given here) [DX596],hIgG3 elution pH 2.5 (% of Total Load),IgG3; Table 13,0%
same,hIgG3 elution pH 3.5 (% of Total Load),IgG3; Table 13,0%
same,hIgG3 elution pH 4.5 (% of Total Load),IgG3; Table 13,0%
same,hIgG3 elution pH 5.5 (% of Total Load),IgG3; Table 13,0%
same,hIgG3 elution pH 9.0 (% of Total Load),IgG3; Table 13,0%
same,hIgG3 elution pH 9.5 (% of Total Load),IgG3; Table 13,0%
same,hIgG3 Bound (% of Total Load),IgG3; [5],0%
same,hIgG2 elution pH 2.5 (% of Total Load),human IgG2; Table 13,71%
same,hIgG2 elution pH 3.5 (% of Total Load),human IgG2; Table 13,92%
same,hIgG2 elution pH 4.5 (% of Total Load),human IgG2; Table 13,44%
same,hIgG2 elution pH 5.5 (% of Total Load),human IgG2; Table 13,3%
same,hIgG2 elution pH 9.0 (% of Total Load),human IgG2; Table 13,58%
same,hIgG2 elution pH 9.5 (% of Total Load),human IgG2; Table 13,64%
same,hIgG2 Bound (% of Total Load),human IgG2; [5],81%
same,"% IgG Capture - Batch Binding, Goat IgG",goat IgG; [6],8%
same,"% IgG Capture - Batch Binding, Mouse IgG",mouse IgG; [6],5%
same,hIgG1 elution pH 2.5 (% of Total Load),human IgG1; Table 13,66%
same,hIgG1 elution pH 3.5 (% of Total Load),human IgG1; Table 13,78%
same,hIgG1 elution pH 4.5 (% of Total Load),human IgG1; Table 13,61%
same,hIgG1 elution pH 5.5 (% of Total Load),human IgG1; Table 13,3%
same,hIgG1 elution pH 9.0 (% of Total Load),human IgG1; Table 13,62%
same,hIgG1 elution pH 9.5 (% of Total Load),human IgG1; Table 13,58%
same,hIgG1 Bound (% of Total Load),human IgG1; [5],87%
same,"% IgG Capture - Batch Binding, Bovine IgG",bovine IgG; [6],5%
same,"% IgG Capture - Batch Binding, Human IgG",human IgG [1]; [6],72%
same,hIgG4 elution pH 2.5 (% of Total Load),IgG4; Table 13,44%
same,hIgG4 elution pH 3.5 (% of Total Load),IgG4; Table 13,61%
same,hIgG4 elution pH 4.5 (% of Total Load),IgG4; Table 13,17%
same,hIgG4 elution pH 5.5 (% of Total Load),IgG4; Table 13,2%
same,hIgG4 elution pH 9.0 (% of Total Load),IgG4; Table 13,55%
same,hIgG4 elution pH 9.5 (% of Total Load),IgG4; Table 13,67%
same,hIgG4 Bound (% of Total Load),IgG4; [5],65%
Ac-GDNPMCWRAHWWEDAYCINHEPGPEGGGK-NH2 (not fully specified (bridges); printed as Ac-GDNPMCWRAHWWEDAYCINHEPGPEGGGK-NH2; cysteine pairing not given here) [DX1072],"% IgG Capture - Batch Binding, Goat IgG",goat IgG; [6],4%
same,hIgG1 elution pH 3.0 (% of Total Load),human IgG1; Table 13,27%
same,"% IgG Capture - Batch Binding, Human IgG",human IgG [1]; [6],49%
same,hIgG4 elution pH 3.0 (% of Total Load),IgG4; Table 13,11%
Ac-GDNPMCWRASWWEDAYCINHEPGPEGGGK-NH2 (not fully specified (bridges); printed as Ac-GDNPMCWRASWWEDAYCINHEPGPEGGGK-NH2; cysteine pairing not given here) [DX1071],"% IgG Capture - Batch Binding, Goat IgG",goat IgG; [6],3%
same,"% IgG Capture - Batch Binding, Mouse IgG",mouse IgG; [6],8%
same,hIgG1 elution pH 3.0 (% of Total Load),human IgG1; Table 13,4%
same,"% IgG Capture - Batch Binding, Human IgG",human IgG [1]; [6],45%
same,hIgG4 elution pH 3.0 (% of Total Load),IgG4; Table 13,5%
